From patent publication US20250115663A1 (CELLDEX THERAPEUTICS, published 2025)

Key:
[1] = target: T1, kappa-sCD40(1-94)-Flag mutant fragment D (multiple mutations of residues 33-36) (human, UniProt P25942 21-114); assay: ELISA, mutated kappa-sCD40(1-94)-Flag captured on anti-Flag
T1 construct: The text says only multiple mutations of residues 33-36 (human to mouse differences); that mutant D carries exactly these is inferred; also called D (33-36); not shown: N-terminal human kappa light chain; C-terminal Flag tag
T1 chain: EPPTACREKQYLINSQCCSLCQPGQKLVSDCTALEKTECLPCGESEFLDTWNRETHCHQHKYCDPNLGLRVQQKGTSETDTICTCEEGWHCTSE

[2] = target: T2, kappa-sCD40(1-94)-Flag point mutant E33A (human, UniProt P25942 21-114); assay: as above
T2 construct: not shown: N-terminal human kappa light chain; C-terminal Flag tag
T2 chain: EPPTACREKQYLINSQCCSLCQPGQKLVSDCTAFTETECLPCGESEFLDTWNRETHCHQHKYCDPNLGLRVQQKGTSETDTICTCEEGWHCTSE

[3] = target: T3, kappa-sCD40(1-94)-Flag point mutant T35E (human, UniProt P25942 21-114); assay: ELISA, kappa-sCD40-Flag fusion (~2 ug/ml) captured on anti-Flag, anti-human IgG Fc-HRP
T3 construct: not shown: N-terminal human kappa light chain; C-terminal Flag tag
T3 chain: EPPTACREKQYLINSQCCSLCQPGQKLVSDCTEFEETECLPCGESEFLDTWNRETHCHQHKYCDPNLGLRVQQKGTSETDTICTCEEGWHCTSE
Method: (§1) containing the sCD40 fusion proteins were captured to microtiter plates that were pre-coated with 5 μg/ml mouse anti-Flag antibody (Sigma) in PBS and blocked with 5% bovine serum albumin in PBS. Following incubation with the CD40 antibody, the microplates were washed with PBS/Tween, and incubated with a goat anti-human IgG Fc polyclonal reagent conjugated to horseradish peroxidase. After washing, the plates were developed with HRP substrate, and analyzed at OD 450-650 using a microtiter plate reader. An ELISA with a goat anti-human IgG Fab2-HRP to measure kappa chain binding was carried out in parallel to validate the sCD40 fusion protein expression from different transfections.

[4] = target: T4, kappa-sCD40-Flag fusion protein, fragment amino acids 1-94 (human, UniProt P25942 21-114); assay: ELISA, kappa-sCD40(1-94)-Flag captured on anti-Flag antibody, detection anti-human IgG Fc-HRP; the concentration axis is taken as that of 3C3 (not said on the sheet)
T4 construct: also called sCD40aa 1-94; not shown: N-terminal human kappa light chain; C-terminal Flag tag
Method: as §1, with “1 μg/ml of purified kappa-sCD40-Flag fusion proteins or CHO cell supernatants containing” for “containing”

Binder	binding result [1]	binding result [2]	Average OD [3] [OD 450-650]	EC50 (read off the curve) [4] [µg/mL]
anti-CD40 human monoclonal antibody 3G5 (antibody, human IgG2, V domains shown, Human IgG2) VH: QVQLVESGGGVVQPGKSLRLSCAASGFTFSSNGIHWVRQAPGKGLEWVAVIWSDGSNKFYADSVKGRFTISRDNSKNTLYLQMNSLRAEDTAVYYCARASGSGSYYNFFDYWGQGTLVTVSS VL: EIVMTQSPATLSVSPGERATLSCRASQSVRSNLAWYQQKPGQAPRLLIYGASTRATGIPARFSGSGSGTEFTLTINSLQSEDFAVYYCQQHNKWITFGQGTRLEIK	no binding	no binding		
anti-CD40 human monoclonal antibody 3C3 (antibody, human IgG2, kappa, V domains shown, Human IgG2, C-terminal lysine removed; also called anti-CD40 mAb 3C3; CD40 antibody 3C3) VH: QVQLVESGGGVVQPGRSLRLSCAGSGFIFSRYGMYWVRQAPGKGLEWVAVIWYDGSYKYYADSVKGRFTISRDNSKNTLYLQMNSLRAEDTAVYYCARESPWYYFDYWGQGTLVTVSS VL: DIQMTQSPSSLSASVGDRVTITCRASQGISNYLAWYQQKPGKVPKLLIYAASTLQSGVPSRFSGSGSGTDFTLTISSLQPEDVATYYCQKYKSAPFTFGPGTKVDIKR			2.07	~0.02
